Assay results as given in patent US20240043507A1 (RQ BIOTECHNOLOGY, published 2024).
Several values for one entry are separate records, joined by “and”; a condition that tells them apart may be missing. Equal entries are not always repeated.

B1: antibody 278 (antibody, V domains shown)
VH: QVQLVQSGAEVKKPGASVKVSCKASGYIFIRYGISWVRQAPGQGLEWMGWISANNGYTNYAQKLQGRVTMTTDTSTSTAYMELRSLRSDDTAVYYCARDGGILTGYLDYFDHWGQGTLVTVSS
VL: DIQMTQSPSSLSASVGDRLTITCRASQSIASYLNWYQQKPGKAPKLLIYAASSLQSGVPSRFSGSGSGTDFTLTISSLQPEDFATYHCQQSYSTLGITFGPGTKVDIK
notes: also called mAb 278
B2: antibody 253H165L (antibody, V domains shown)
VH: not shown
VL: DIVMTQSPGTLSLSPGERATLSCRASQSVRSSYLAWYQQKPGQAPRLLIYGASRRGTGIPDRFSGSGSGTDFTLTISRLEPEDFAVYYCQQYGSSPWTFGQGTKVEIK
B3: antibody 165 (antibody, V domains shown)
VH: QVQLVQSGPEVKKPGTSVKVSCKASGFTFTSSAVQWVRQARGQRLEWIGWIVVGSGNTNYAQKFQESVTITRDMSTSTAYMELSSLRSEDTAVYYCAAPHCIGGSCHDAFDIWGQGTMVTVSS
VL: B2 VL
notes: also called mAb 165
B4: antibody 158 (antibody, V domains shown)
VH: EVQLLESGGDLIQPGGSLRLSCAASGVTVSSNYMSWVRQAPGKGLEWVSIIYPGGSTFYADSVKGRFTISRDNSKNTLYLQMHSLRAEDTAVYYCARDLGSGDMDVWGKGTTVTVSS
VL: DIVMTQSPSFLSASVGDRVTITCRASQGISSYLAWYQQKPGKAPKLLIQAASTLQSGVPSRFSGSGSGTEFTLTISSLQPEDFATYYCQQLNSYRYTFGQGTKVEIK
notes: also called mAb 158
B5: antibody 316 (antibody, V domains shown)
VH: not shown
VL: QAVLTQPPSASGSPGQSVTISCTGTSSDVGGYNYVSWYQQHPGKAPKLMIYEVSKRPSGVPDRFSGSKSGNTASLTVSGLQAEDEADYYCSSYAGSNHWVFGGGTKLTVL
B6: antibody 222 (antibody, V domains shown)
VH: EVQLVESGGGLIQPGGSLRLSCAASGLTVSSNYMSWVRQAPGKGLEWVSVIYSGGSTFYADSVKGRFTISRDNSKNTLYLQMNSLGAEDTAVYYCARGEGSPGNWFDPWGQGTLVTVSS
VL: DVVMTQSPGTLSLSPGERATLSCRASQSVPSSYLAWYQQKPGQAPRLLIYGASTRATGIPDRFSGSGSGTDFTLTISRLEPEDFAVYYCQHYDTSPRFGGGTKVDIK
B7: antibody 269 (antibody, V domains shown)
VH: QVQLVESGGGLIQPGGSLRLSCAASGLTVNRNYMSWIRQAPGKGLEWVSVIYSGGSTFYADSVKGRFTISRDNSKNTLSLQMNSLRAEDTAIYYCARDFYEGSFDIWGQGTMVTVSS
VL: AIQLTQSPSFLSASIGDRVTITCRASQGISSYLAWYQQKPGKAPKLLIYAASTLQSGVPSRFSGSGSGTEFTLTISSLQPEDFASYYCQQLNSYPAPVFGPGTKVDIK
notes: also called mAb 269
B8: antibody 281 (antibody, V domains shown)
VH: QVQLVESGGGLVQPGGSLRLSCAASGFPFSIYWMSWVRQAPGKGLEWVANIKQDGSEKYYVDSVKGRFTISRDNAKNSLYLHMNSLRGEDTAVYYCASRYYDFRPEAWFDYWGQGTLVTVSS
VL: not shown
B9: antibody 150 (antibody, V domains shown)
VH: QVQLVESGGGLIQPGGSLRLSCAASGVTVSSNYMSWVRQAPGKGLEWVSIIYSGGTTYYADSVKGRFTISRDSSMNTLYLQMNSLRAEDTAVYYCARDLMVYGIDVWGQGTTVTVSS
VL: EIVMTQSPSSLSASVGDRVTITCRASQGISSYLAWYQQKPGKAPKLLIYAASTLQSGVPSRFSGSGSGTDFTLTISSLQPEDFATYYCQQLDSYPPGYTFGQGTKVDIK
B10: antibody 132 (antibody, V domains shown)
VH: QVQLQQWGAGLLKPSETLSLTCAVYGGSFSGYYWSWIRQPPGKGLEWIGEINHSGSTNYNPSLKSRVTISVDTSKNQFSLKLSSVTAADTAVYYCARTDYYDSIDWGQGTLVTVSS
VL: QSVLTQEPSLTVSPGGTVTLTCGSSTGAVTSGHYPYWFQQKPGQVPRTLIYDTRNKHSWTPARFSGSLLGGKAALTLSGAQPEDEAEYYCLLSSSGARVFGGGTKLTVL
B11: antibody 88 (antibody, V domains shown)
VH: QLQLQESGPGLVKPSQTLSLTCTVSGGSISSGSYNWTWIRQPAGKGLEWIGRIYNSGSTNYNPSLKSRVTISVDTSKNQLSLKVRSVTAADTAVYYCARHCSGGTCYPKYYYGMDVWGQGTTVTVSS
VL: QSALTQPPSVSEAPRQRVTISCSGSSSNIGNNAVNWYQQFPGKAPKLLIYYDDLLPSGVSDRFSGSKSGTSASLAISGVQSEDEADYYCAAWDDSLNVVVFGGGTKLTVL
notes: also called mAb 88
B12: antibody 170 (antibody, V domains shown)
VH: QVQLVESGAEVKKPGESLKISCKGSGYSFTSYWIVWVRQMPGKGLEWMGIIYPGDSDTKYSPSFQGQVSISADKPISTAYLQWSRLKASDTAMYYCARLGNWLVDYWGQGTLVTVSS
VL: DIVMTQSPLSLSVTPGQPASISCKSSQSLLHSDGKTYLYWYLQKPGQPPQLLMYEVSNRFSGVPDRFSGSGSGTDFTLKISRVESEDVGVYYCMQSIQLPRGITFGQGTRLEIK
B13: antibody 175 (antibody, V domains shown)
VH: EVQLVESGGGLIQPGGSLRLSCAASGLTVSRNYMSWVRQAPGKGLEWVSLIYSGGSTYYADSVKGRFTISRDNSKNTLYLQMNSLRAEDTAVYYCARDLRGEVWGQGTMVTVSS
VL: not shown
notes: also called mAb 175

Each binder was assayed against spike protein of SARS-CoV-2 strain B.1.1.7 (SARS-CoV-2, UniProt P0DTC2 14-1273) (assay: cell-based or functional assay).

Binder	IC50 (FRNT neutralisation)	FRNT50 ratio B.1.1.7/Victoria
B1	0.307 µg/mL	–
B2	0.006 µg/mL	–
B3	0.212 µg/mL	–
B4	0.254 µg/mL	–
B5	0.024 µg/mL	–
B6	0.014 µg/mL and 0.011 µg/mL	–
B7	> 10 µg/mL	–
B8	0.012 µg/mL	–
B9	0.139 µg/mL	12
B10	0.337 µg/mL	7
B11	0.058 µg/mL	–
B12	0.105 µg/mL	4.2
B13	0.575 µg/mL	–

These binders were tested against spike protein of SARS-CoV-2 strain Victoria (SARS-CoV-2/human/AUS/VIC01/2020) (SARS-CoV-2, UniProt P0DTC2 14-1273) (assay: cell-based or functional assay).

Binder	IC50 (FRNT neutralisation)
B1	0.014 µg/mL
B2	0.003 µg/mL
B3	0.034 µg/mL
B4	0.031 µg/mL
B5	0.018 µg/mL
B6	0.019 µg/mL and 0.017 µg/mL
B7	0.03 µg/mL
B8	0.005 µg/mL
B9	0.012 µg/mL
B10	0.048 µg/mL
B11	0.033 µg/mL
B12	0.025 µg/mL
B13	0.026 µg/mL

What follows are binders tested against spike protein of SARS-CoV-2 strain P.1 (SARS-CoV-2, UniProt P0DTC2 14-1273) (assay: cell-based or functional assay).

Binder	IC50 (FRNT neutralisation)	FRNT50 ratio P.1/Victoria
B1	0.245 µg/mL	–
B2	0.019 µg/mL	–
B3	0.241 µg/mL	–
B4	> 10 µg/mL	–
B5	> 10 µg/mL	–
B6	0.008 µg/mL and 0.009 µg/mL	–
B7	> 10 µg/mL	–
B8	> 10 µg/mL	–
B9	0.04 µg/mL	3.4
B10	> 10 µg/mL	> 208
B11	> 10 µg/mL	–
B12	> 10 µg/mL	> 402
B13	3.88 µg/mL	–

The binders below were run against spike protein of SARS-CoV-2 strain B.1.351 (SARS-CoV-2, UniProt P0DTC2 14-1273) (assay: cell-based or functional assay).

Binder	IC50 (FRNT neutralisation)	FRNT50 ratio B.1.351/Victoria
B1	0.16 µg/mL	–
B2	0.013 µg/mL	–
B3	0.054 µg/mL	–
B4	> 10 µg/mL	–
B5	> 10 µg/mL	–
B6	0.017 µg/mL and 0.016 µg/mL	–
B7	> 10 µg/mL	–
B8	> 10 µg/mL	–
B9	0.35 µg/mL	30
B10	> 10 µg/mL	> 208
B11	> 10 µg/mL	–
B12	> 10 µg/mL	> 402
B13	> 10 µg/mL	–
